Assay results taken from the DeepSol protein solubility set.

Assay: soluble on expression in E. coli; label from the status in PepcDB or PDB records

| Sequence | soluble on expression in E. coli |
| --- | --- |
| MKRILNYPGSKWGLADLIIENMPEHKSYLEPFCGSCAVFMNKQKATLETINDLDGRLVNLFKTMRDNPEELQYLIMHTLYSREEYMLSHEISSDSLEDARRMAVRLWFAVGGKTNANVGFRKNVSWNGPYNAYEWNDMYNRIGIAAARLKDAQIENVDAIKLIEQHNDKDTLIYCDPPYVATSLASSHYQHDFSLEQHKELLKVLKKHEGKVMLSGYESELYKQELSDWPALKTMTKVGITSEKKSDRQEIIWCNFEPPMQLNLFKEEQA | not soluble |
| MKRKIIVACGGAVATSTMAAEEIKELCQSHNIPVELIQCRVNEIETYMDGVHLICTTARVDRSFGDIPLVHGMPFVSGVGIEALQNKILTILQG | soluble |
| MKRLRCIREIERQRGTRVIAMIHRQEALTFLGIPIYKFITIEDSEEILRAIRLTPEDMPIDLIIHTPGGLALASEQIALALKEHKAKTTVIIPHYAMSGGSLIALAADEIIMDKNAVMGPVDPQIGQYPAASILEAYYRKGEKVSDETLILVDISKKAIKQMEEFVYELLKDKYGDEKAKEIAKKLTSGTW | not soluble |
| MKRRLLCALLASTLAQPLTVRADLPDLGEISDASLSLSDEARIGRDALRAMREAGDVVDDPEVNAYLNDVGGRLAAAAAVPGVRFTYFCVADAGINAFAMPGGYVGINIGLMLASQSEGELAAVLGHETAHVAQRHIARMQAANSAASPLLLLGTIVAAALAAKAGSGDGAMGAVSAGMGLSISRQLAFSRDFEREADRVGMQYMSAAGFDVRNMAAFFQRLEQASRYSDNTAYAFLRTHPVTLERISEAQNRALDYPVRMRADSVDYLLVREKLRVLTLSPEEAVSHYSSALQRGLYLNEGANWYGLARAKLLQHDRAGASEALAKARAKLPDNPMLYGLEVEIARDGRDWAAAARAARNGLSAFPRSVSLQLAQLDVALDGGDRKAAQAQLRQLLDSRRDDPALYRREAKLYADKDPLRYHAALGNAFYYEQRYGAALEQYQLAGKAKGDDFYLRSMLEARLREVEKLAKEERKAARNLEHHHHHH | soluble |
| MKRTIILFDINETVLNLSALKPKFKATFGDESVMATWFSMLLHSSTVCIMTSVKTDFATLAGTMLESIAARMSIKLSKAARDDILAGFANLPPHNDIKPALAQLKSAGFRTVAFSNSSLNLISTQITNAGLKEYFDDIISVEETGSFKPDPTVYKFAAKRLNQPLESLRLVATHDWDTHGALSVEMRAAYINRSGAVYHPLYRQPDIYATTMEDIVKLIIEKDD | not soluble |
| MKRTVTVKLQPSKAQEETLKELAIISSKAWNKVNYLRRQEFFEGKPVDFLKTEKIVYEEFKSEIGSATVQQICRKNADAWRSFFSLIRSKRNGELPKWFKPKPPEYVKEGGLIILRNDQYKIEGNKLILKGLGKFKRLEVQFKGRIHLKGKQGRLEITFDPIRRKWYAHISYTVKEKLYGGEWVEVLRQPLGNLSAGIDLGVNNLMAVYVENGESFLVNGRPLKSIDFYWRKRIAEYQSKLNKSGVKKGRKLSKMHQKAKLQAKHYINTAIRRTVEKLYHLGVSRIVVGYPKGISRNSDKGKKQNYLLSHVWRFNYVIKRLREVAEEYGIQVLIVDEAFTSKLCPVCGKPHKGQGLFEDYLSVPRRGLPLMPTWLELSTFLEHHHHHH | soluble |
| MKRVRLQEVAQVAGVSLGLASAVLNGRHVRARPETVERIREAAQRLGYVPDRMAQAMRWGRTGIIALVVPNFANPYYSALAVEVQRAAWEADLEVLVYANPTEDLAQVSRAVSARRVDGGIIVVSHYTPEELKAHLPLEIPWVGVGHALEPLPFDRVSFKDKEAAMDAVRYLADKGYRRIAHLAGPAPSPTAKARLEGYLEAVSALGMPALVQEGTFRYGDNQRALQTLLGWRADALLAGNDLMALEALAFLQDRGVPVPQGMAVVGFDGIPMGEWVRPQLTTIVRSPRASAQAALARLLARLEGAGEPPQEVWLDTSLRPGDSA | soluble |
| MKRYGNLYQEIINFENILIASRQAQKSKRFRDNVLDFNYHLETELIKLQKHLTDKTYQPGAYRTFRLTNPKSRLISAAPYRDRVVHHALCNIIVPIFERAFVADSYANRIGFGTHRALKKFTHSARNSPYVLQCDIRKYFPSIDHIILKELIRRKIKCPDTLWLIDTIIDNSNEQETVIDYFAGDDLLSPITRRKGLPIGNLTSQFFANIYLNGFDKIIKEELKISKYVRYVDDFALFSDDRELLADARLAIEAYLAELRLKIHPIKSQLFETKIGATFLGFRIFSHKIRVRNSNLHQARRRLKRLKTDYAQGKLELNQVTQSMRSWIAHLEHGDTWRLRKQIFTSLHFRRKLEHHHHHH | soluble |
| MKSFILGPLGLLVAICCLYQPADAALAAMSIDLGSQFIKIGLVKPGVPMDIVLNKESRRKTPNVISFKNDERFFAEAAAAMSSSHPQSSYNFLLSMIARKEGDDAFVTFQKTFPFTAFEFDEVRKTVVFPYKEEKYNVETLLAMILWNAKKVTEAYADQTVKDVVITVPIFLNQAERRAIASAAEIAGLNLLQLLNDGSAAALNYGVFRRKEITEKPTHMLIYDMGAVKTTATIVQYVLESTRKDGKDKQPTLRTVGVGFDKTLGGLEITNRLRDHLEKVFRDTVKTSKDISTNARAIGKLHKEAERVKQVLSANKDTYAQVESLFEEQNFRAKVTREELEKMIEDLEPRIAAPILDAIGMAQISTNDIDLVVLMGAGTRVPKVKEILKTILKDKEISNFLNTDEAIAMGAVYQAAHLSKSFKVLPFNVHEKILYPVFVNFLTKTEEGTMKPIRKSLFGENYPVPNRVMHFSSYSDDFKIDIQDADKNPLSTVEISGVKDAIEKEVTDENSVLKGVKTTFSIDLSGIVSVEKASVVVEKVPTPEEKDKYEVDKKEFDEWEKEQEELKKKEKAEKKEKEEKKKTEGEEEKNEDAAGEEKTEEKTEEVEKPVVVKKTKPVEPKAKKINVALTIKETKTDNIDLNEEEVTAAKKVLGDFEQKEKEKHDREEAMNRLEGLLYDLAVRLEDGEEYAEYATEEEKKAILEEVAVLKLWFEDDVSLETKKEEFDEKRAKLEELTAKPNARKQERLDIPKVAEIIEDHFNRSMTFHAMALNLTQFEEGNKTFTDTELEVLTKLIESTTEWWNEKKDLFEKQAKNEDPVVKASEIAEKARDLEREVRYLVNKLKIASSKKSKESEKKKKTKKEKDTVKERKEEETTETTTEDQANEQQTPPPFENDNTKDDESASTEEPKKDTEHDASEL | not soluble |
| MKSLIDHFDIASAKVQSLVQETLHHADDGELYLEYTESETLLFDNRQLKNGSFHQDMGFGLRVVAGEATGYAHSSELSAAALKRASEAAKTVTYKNHAGPYSVAPQQTNKKLYQPHNPLNAPSFEEKSALLQKIDDYLRAKNDKLHQVTVSLSGSLQHVEILRADGNLVRDIRPLVRLSISVVAAEGNRRENGFYGCGGRQAFSQFISEENWKKAADEALRMALINLEAEAAPAGTFDVVLANGWPGVMLHEAVGHGLEGDFNRKKTSAFSGLLGQQVAAKGVTVVDDGTIPKCRGSLTIDDEGTPSGYNILIENGKLVGFMQDRLNARLMGVNPTGNGRRESYAYAPMPRMTNTIMLGGDKTPEEILSSLKSGIYAVSFGGGQVDITSGKFVFECTEAYRVENGKIVAPIKGATLIGNGPEAMKRITMIGNDSKLDNGIGTCGKAGQSVPVGVGQPHLRINNMTIGGTELT | not soluble |
| MKSLPYTIALLFCGLIIVSMAAKGHSTDTDESVQKWEQLAWSKIQDEYKGASFSDYAYMGRTEVNDQQTKDVFRVTVRQKDDTFSVRAEVYFHPVTNHMISINVFRLMAGDPLEHHHHHH | soluble |
| MKSLVKVSLAALALAFAVSAYAAEKELIVATDTAFVPFEFKQGDKYVGFDIDLWDAIAKKLDLKYTLKPMDFSGIIPALQTKNVDLALAGITITDERKKAVDFSDGYYNSGLLVMVKADNNDIKSEADLQGKVLAVKSGTGSVDYAKANIKTKDLRQFPNIDNAYLELGTGRADAVLHDTPNILYFIKTAGNGQFKAVGESIKAQQYGVAFPQGSDLREKVNAALKSLKEDGTYAEIYKKWFGVEPK | not soluble |
| MKSNKNEFLKLLTAYQGIIHKVNRIYFRSEADREDNFQETVYQLWRSFPALQNKEKPASWIYTVAINTSISKVRKDSRIEFRDSPPDGEPVDPWEQQEQDENWQRLVNALQKLNEIDKSIMLLYMEDYSYEEIAGIVGISSSAVGVKIHRLKGQLQKQFKK | not soluble |
| MKSVQEKRNNTRAFKTVAKSWFATKTTWSEDYQRSVWTRLETYLFPDIGNKDIAELDTGDLLVPIKKIEKLGYLEIAMRVKQYATAIMRYAVQQKMIRFNPAYDLEGAVQKLEHHHHHH | soluble |
